# Experimental data: publication doi:10.1101/2025.03.14.642698
# Assays:
# [1] = target: Ldb16 (1-133 6A)-FLAG, genomically expressed (S. cerevisiae) (UniProt P25587); assay: co-IP
# [2] = target: Ldb16 (1-133 ΔH)-FLAG, genomically expressed (S. cerevisiae) (UniProt P25587); assay: co-IP
binder,measurement,setting,value
"Ldo45-HA, endogenously tagged (natural protein) MAARNRRKNNKKKSLLVTSAAQEKNATYVLVAEELHKKTIDLNMGTETPLTENHENPIPAKEFKHQQKLEPIDEHDDGEDELSIKFKSMTKSSGPITEAEVQKLLLSYAFTSAAIQEDENEKESRHYPIKPPSPSASSLSAYFQSFVEKCKQVFYNFSLQTVEKLNALQNSLYEVFWIIFIYLNYWFPNVGDYVSNTFGQQDSIIIRISLSKSHFRALREKSSQKVQQAVKNIYFCFQEKPYLTAFKVSFAIGLVIPCSLLFLIMVSTATFFFFVYLTLFVVIGFFSSLFIIPLLGISFVFAIGVVSFGFCSNMSFKMAQLIYVRADAFLKKVLDKMALQTQPAQLQEPQEPLSTLRPVSNPTIPSPLRQTARPSKFVTEEDVIFEPVSAQSAIARSLETTANKAGNKFQLS",Ldo co-immunoprecipitation compared to Ldb16 1-133 (% lower than 1-133),[1],50
same,Ldo co-immunoprecipitation compared to Ldb16 1-133 (% lower than 1-133),[2],50
"Ldo16-HA, endogenously tagged (natural protein) MVSTATFFFFVYLTLFVVIGFFSSLFIIPLLGISFVFAIGVVSFGFCSNMSFKMAQLIYVRADAFLKKVLDKMALQTQPAQLQEPQEPLSTLRPVSNPTIPSPLRQTARPSKFVTEEDVIFEPVSAQSAIARSLETTANKAGNKFQLS",Ldo co-immunoprecipitation compared to Ldb16 1-133 (% lower than 1-133),[1],50
same,Ldo co-immunoprecipitation compared to Ldb16 1-133 (% lower than 1-133),[2],50
